Ends that are not written are not given here.
Assays:
Test in all cases: cyclic peptide substitution array
[1] = biological target: T1, ApoC3 peptide S62L (human, thioether (positions not given here); also: cyclic (thioether), ring places not given here)
T1 peptide: DKFLEFWDLDPEV
How it was run: (§1)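 Peptide microarrays incubated with antibody samples, then stained with goat anti-human IgG (Fc) DyLight680 and anti-HA DyLight800 control antibodies, scanned at intensity 7/7 (red/green). Secondary-only pre-stain checked background binding; framing HA peptides served as quality control; substitution effects read as changes in spot intensity.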

[2] = biological target: T2, ApoC3 peptide D66P (human, not fully specified; cyclic (thioether))
T2 peptide: DKFSEFWPLDPEV
How it was run: as §1

[3] = biological target: T3, ApoC3 peptide D68S (human, cyclic (thioether))
T3 peptide: DKFSEFWDLSPEV
How it was run: as §1

[4] = biological target: T4, ApoC3 peptide E63A (human, not fully specified; cyclic (thioether))
T4 peptide: DKFSAFWDLDPEV
How it was run: as §1

[5] = biological target: T5, ApoC3 peptide F61Q (human, cyclic (thioether))
T5 peptide: DKQSEFWDLDPEV
How it was run: as §1

[6] = biological target: T6, ApoC3 peptide D68E (human, cyclic (thioether))
T6 peptide: DKFSEFWDLEPEV
How it was run: as §1

[7] = biological target: T7, ApoC3 peptide V71Q (human, not fully specified; cyclic (thioether))
T7 peptide: DKFSEFWDLDPEQ
How it was run: as §1

[8] = biological target: T8, ApoC3 peptide F64K (human, thioether (positions not given here); not fully specified (bridges); also: cyclic (thioether), positions not given here)
T8 peptide: DKFSEKWDLDPEV
How it was run: as §1

[9] = biological target: T9, ApoC3 peptide V71L (human, thioether (positions not given here); also: cyclic (thioether), ring places not given here)
T9 peptide: DKFSEFWDLDPEL
How it was run: as §1

[10] = biological target: T10, ApoC3 peptide E63Y (human, cyclic (thioether))
T10 peptide: DKFSYFWDLDPEV
How it was run: as §1

[11] = biological target: T11, ApoC3 peptide F64D (human, cyclic (thioether))
T11 peptide: DKFSEDWDLDPEV
How it was run: as §1

[12] = biological target: T12, ApoC3 peptide W65N (human, not fully specified; cyclic (thioether))
T12 peptide: DKFSEFNDLDPEV
How it was run: as §1

[13] = biological target: T13, ApoC3 peptide W65M (human, cyclic (thioether))
T13 peptide: DKFSEFMDLDPEV
How it was run: as §1

[14] = biological target: T14, ApoC3 peptide V71C (human, thioether (positions not given here); also: cyclic (thioether), ring places not given here)
T14 peptide: DKFSEFWDLDPEC
How it was run: as §1

[15] = biological target: T15, ApoC3 peptide W65V (human, cyclic (thioether))
T15 peptide: DKFSEFVDLDPEV
How it was run: as §1

[16] = biological target: T16, ApoC3 peptide W65F (human, not fully specified; cyclic (thioether))
T16 peptide: DKFSEFFDLDPEV
How it was run: as §1

[17] = biological target: T17, wild-type ApoC3 peptide DKFSEFWDLDPEV (human, cyclic (thioether))
T17 construct: 13 aa cyclic constrained peptide
T17 peptide: DKFSEFWDLDPEV
How it was run: as §1

[18] = biological target: T18, ApoC3 peptide F61R (human, cyclic (thioether))
T18 peptide: DKRSEFWDLDPEV
How it was run: as §1

[19] = biological target: T19, ApoC3 peptide F64E (human, cyclic (thioether))
T19 peptide: DKFSEEWDLDPEV
How it was run: as §1

[20] = biological target: T20, ApoC3 peptide F61K (human, cyclic (thioether))
T20 peptide: DKKSEFWDLDPEV
How it was run: as §1

[21] = biological target: T21, ApoC3 peptide D68K (human, cyclic (thioether))
T21 peptide: DKFSEFWDLKPEV
How it was run: as §1

[22] = biological target: T22, ApoC3 peptide D66H (human, not fully specified; cyclic (thioether))
T22 peptide: DKFSEFWHLDPEV
How it was run: as §1

[23] = biological target: T23, ApoC3 peptide L67G (human, thioether (positions not given here); not fully specified (bridges); also: thioether between a C-terminal Cys side chain and a modified N-terminus, the Cys is not in the chain)
T23 peptide: DKFSEFWDGDPEV
How it was run: as §1

[24] = biological target: T24, ApoC3 peptide K60V (human, cyclic (thioether))
T24 peptide: DVFSEFWDLDPEV
How it was run: as §1

[25] = biological target: T25, ApoC3 peptide D68M (human, cyclic (thioether))
T25 peptide: DKFSEFWDLMPEV
How it was run: as §1

[26] = biological target: T26, ApoC3 peptide K60S (human, cyclic (thioether))
T26 peptide: DSFSEFWDLDPEV
How it was run: as §1

[27] = biological target: T27, ApoC3 peptide W65H (human, cyclic (thioether))
T27 peptide: DKFSEFHDLDPEV
How it was run: as §1

[28] = biological target: T28, ApoC3 peptide P69N (human, not fully specified; cyclic (thioether))
T28 peptide: DKFSEFWDLDNEV
How it was run: as §1

[29] = biological target: T29, ApoC3 peptide K60Y (human, cyclic (thioether))
T29 peptide: DYFSEFWDLDPEV
How it was run: as §1

[30] = biological target: T30, ApoC3 peptide P69E (human, not fully specified; cyclic (thioether))
T30 peptide: DKFSEFWDLDEEV
How it was run: as §1

[31] = biological target: T31, ApoC3 peptide W65T (human, cyclic (thioether))
T31 peptide: DKFSEFTDLDPEV
How it was run: as §1

[32] = biological target: T32, ApoC3 peptide F61W (human, cyclic (thioether))
T32 peptide: DKWSEFWDLDPEV
How it was run: as §1

[33] = biological target: T33, ApoC3 peptide D59H (human, thioether (positions not given here); not fully specified (C-terminus, bridges))
T33 peptide: HKFSEFWDLDPEV
How it was run: as §1

% of binding to wild-type peptide [1]: 3.83% | % of binding to wild-type peptide [2]: 0% | % of binding to wild-type peptide [3]: 0.17% | % of binding to wild-type peptide [4]: 90.1% | % of binding to wild-type peptide [5]: 75.6% | % of binding to wild-type peptide [6]: 40.1% | % of binding to wild-type peptide [7]: 86.8% | % of binding to wild-type peptide [8]: 114% | % of binding to wild-type peptide [9]: 90.6% | % of binding to wild-type peptide [10]: 90.9% | % of binding to wild-type peptide [11]: 259% | % of binding to wild-type peptide [12]: 0% | % of binding to wild-type peptide [13]: 0% | % of binding to wild-type peptide [14]: 56.9% | % of binding to wild-type peptide [15]: 17.9% | % of binding to wild-type peptide [16]: 5.5% | % of binding to wild-type peptide [17]: 100% | % of binding to wild-type peptide [18]: 2.77% | % of binding to wild-type peptide [19]: 283% | % of binding to wild-type peptide [20]: 13.5% | % of binding to wild-type peptide [21]: 0.04% | % of binding to wild-type peptide [22]: 0% | % of binding to wild-type peptide [23]: 35.2% | % of binding to wild-type peptide [24]: 101% | % of binding to wild-type peptide [25]: 2.82% | % of binding to wild-type peptide [26]: 174% | % of binding to wild-type peptide [27]: 0% | % of binding to wild-type peptide [28]: 19.4% | % of binding to wild-type peptide [29]: 56.3% | % of binding to wild-type peptide [30]: 43% | % of binding to wild-type peptide [31]: 0% | % of binding to wild-type peptide [32]: 15.7% | % of binding to wild-type peptide [33]: 52.8%
B1: Llama antibody 5E5 (antibody, V domains shown)
VH: QLQLVESGGGLVQPGGSLRLSCAASGFTFGTYSMRWVRQVPRKALEWVSSISTDGGGTAYRDSVKGRFTISRDNAKNTLYLQMNNLKPEDTAIYYCVIAGYSDWGQGTQVTVSS
VL: ATMLTQSPGSLSVVPGESASISCKTSQGLVHSDGKTYFYWFLQKPGQSPQQLIYQVSNRASGVPDRFTGSGSGTDFTLKISGVKAEDAGVYYCAQGTYYPHTFGSGTRLEIK
notes: detected with goat anti-human IgG (Fc); also called mAb 5E5

Source: US20190241648A1 (STATEN BIOTECHNOLOGY B V, published 2019)
